Assay: yeast display, Sf9 membrane polyspecificity reagent, FACS + sequencing; frameworks hold sequencing errors
How it was run: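 Sorting gates, low and high (top ~1%), were placed on anti-HA fluorescence to track expression and on streptavidin fluorescence to track reagent binding. A clone's polyreactivity label is taken from the gate it came out of. The reagent was 10% biotinylated, detergent-solubilized Sf9 membrane, applied for 1 hour at 4 °C to galactose-induced yeast display cells.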

| Sequence | polyreactivity (PSR sort gate) |
| --- | --- |
| QVQLVESGGGLVQAGGSLRLSCAASGSIFIYNAMGWYRPAPGKETEFVDTINSGTVTKYADSVKGRFTISRDNAKNTVYLQMNSLKPEDTAVYYCATVFDRQYSTQYQVSRYDYWVQGTQVTVSS | low polyreactivity |
| QVQLVESGGGLVQAGGSLRLSCAASGSIFIYYAMGWYRQAPGKERELVARITGGGSTYYADSVKGRFTISRDNAKNTVYLQMNSLKPEDTAVYYCAKRGYHFLTKYDYWGQGTQVTVSS | low polyreactivity |
| QVQLVESGGGLVQAGGSLRLSCAASGSIFKANAMGWYRQAPGKERELVATITSSGTRTYYADSVKGRFTISRDNAKNTVYLQMNSLKPEDTAVYYCNARAYPYQRGRYGYWGQGTQVTVSS | high polyreactivity |
| QVQLVESGGGLVQAGGSLRLSCAASGSIFKAYAMGWYRQAPGKERELVAAITWSAGSTYYADSVKGRFTISRDNAKNTVYLQMNSLKPEDTAVYYCAAEVRGSYYLTGYDYWGQGTQVTVSS | high polyreactivity |
| QVQLVESGGGLVQAGGSLRLSCAASGSIFKFYAMGWNRQAPGKERAFVAAITYRGGSTYYADSVKGRFTISRDNAKNTVYLQMNRLKPEDTAVYYCNAVVLRWRGYLVPFNYWGQGTQVTVSS | high polyreactivity |
| QVQLVESGGGLVQAGGSLRLSCAASGSIFKGYAMGWYRQAPGKEREFVAAITSSDSNTNYADSVKGRFTFSRDNAKNTVYLQLHTLKPEDTAVYYCNARIYNRLYVPHYGFNYWGQGTQVTVSS | low polyreactivity |
| QVQLVESGGGLVQAGGSLRLSCAASGSIFKGYAMGWYRQAPGKERELVAAISRTGGSTYYADSVKGRFTISRDYAKNTVYLQMNSLKPEDTAVYYCAAYSASTYDSWGQGTQVTVSS | high polyreactivity |
| QVQLVESGGGLVQAGGSLRLSCAASGSIFKIYAMGWYRQAPGKERELVAAITINGGSTYYADSVKGRFTISRDNAKNTVYLQMNSLKPEDTAVYYCAASADWWYEYWGQGTQVNVSS | low polyreactivity |
| QVQLVESGGGLVQAGGSLRLSCAASGSIFKLNAMGWYRQAPGKERELVAAISRGGRTYYADSVKGRFTISRDNAKNTVYLQMNSLKPEDTAVYYCAADASSQIWYYPRDDYWGQGTNVTVSS | low polyreactivity |
| QVQLVESGGGLVQAGGSLRLSCAASGSIFKNNAMGWYRQAPGKERELVAAIRSSGGSTYYADSVKGRFTISRDNAKHTVYLQMKSLKPEDTAVYYCAARYRSYPTYYQYNYWGQGTQVTVSS | high polyreactivity |
| QVQLVESGGGLVQAGGSLRLSCAASGSIFKQNAMGWYRQAPGKERELVASIRASGDRTYYADSVKGRFTISRDNAKNPVYLQMNSLKPEDSAVYYCAARRVRTRGYNYWGQGTQVTVSS | high polyreactivity |
| QVQLVESGGGLVQAGGSLRLSCAASGSIFKQNAMGWYRQAPGKERELVASIRASGDRTYYADSVKGRFTISRDNAKNTVYLQMNSLKPEDTAVYYCAARRVRTRGYNYWGQGTQVTVSS | high polyreactivity |
| QVQLVESGGGLVQAGGSLRLSCAASGSIFKQNTKGWYRQAPGKERELVAAISSGGSTYYADSVKGRFTISRDNAKNTVYLQMNSLKPEDTAVYYCAKYYDWDYYLPLEGDYWGQGTQVTVSS | low polyreactivity |
| QVQLVESGGGLVQAGGSLRLSCAASGSIFKQNTMGWYRQAPGKEREFVAAISSGGSTYYADSVKGRFTISRDNAKNTVYLQMNSLKPEDTAVYYCAKYYDWDYYLPLEGDYWGQGTQVTVSS | low polyreactivity |
| QVQLVESGGGLVQAGGSLRLSCAASGSIFKQNTMGWYRQAPGKETELVAAISSGGSTYYADSVKGRFTISRDNAKNTVYLQMNSLKPEDTAVYYCAKYYDWDYYLPLEGDYWGQGTQVTVSS | low polyreactivity |
| QVQLVESGGGLVQAGGSLRLSCAASGSIFKRNAKGWYRQAPGKERGLVAGNSQSGSSTRYADSVKGRFTISRDNAKNTVYLQMNSLKPEDTAVYYCAAELSLAYTYDYWGQGTQVTVSS | high polyreactivity |
| QVQLVESGGGLVQAGGSLRLSCAASGSIFKRNAMGWYRQAPVKETELVAAITRSGSSTYYADSVKGRFKISRDNAKNTVYLQFNSLKPEDTSVYYCAAQYESNGYTGYYWGQGTQVSVSS | high polyreactivity |
| QVQLVESGGGLVQAGGSLRLSCAASGSIFKRNDMGWYRQAPGKDRELVASISSGGSTHYADSVKGRFTISRDNAKNTVSLQMNSLKPEDTAVYYCAATSIRWSVGSFRRDYWGQGTQVTVSS | low polyreactivity |
| QVQLVESGGGLVQAGGSLRLSCAASGSIFKRNPMGRYRQAPGKERELVAGISRRAGSTYYADYVKGRFTISRDNAKNTDYLQMNSLKPEDTAVYYCATYSFRGTYRYDYWGQGTQVTVSS | high polyreactivity |
| QVQLVESGGGLVQAGGSLRLSCAASGSIFKRNTMGWYRQAPGKERELVAAISASGGRTYYADSVKGRFTISRDNAKNTVYLQMNSLKPEDTAVYYCNARFRIGRSELDYWGQGTQVTVSS | low polyreactivity |
| QVQLVESGGGLVQAGGSLRLSCAASGSIFKRYAMGWYRQAPGKERELVAAISYSGGSTYYADSVKGLFTISRDNAKNTVYLQMNSLKPEDTAVDYCARGWFYPYYWGQGTQVTVSS | high polyreactivity |
| QVQLVESGGGLVQAGGSLRLSCAASGSIFKSNGMGWNRQAPGKERELVAAITGSGGTTYYADSVKGRFTISRDYAKNTVYLQMNSLKPEDTAVYYCAAVNYYWGQGTQVTVSS | low polyreactivity |

| Sequence | polyreactivity (PSR sort gate) |
| --- | --- |
| QVQLVESGGGLVQAGGSLRLSCAASGSIFKTNAMGWYRQAPGKERELVAAIRASGGSTYYADSVKGRFTISRDNAKNTVYLQMNSLKPEDTAVYYCAARYWFKYYWGQGTQVTVSS | high polyreactivity |
| QVQLVESGGGLVQAGGSLRLSCAASGSIFKVNAMGWYRQAPGKERELVAAISGNTDTTYYADSVKGRFTISRDNAKNTVYLQMNSLKPEDTAVYYCAADAYIKYYFRWINMYYWGQGTQVTVSS | high polyreactivity |
| QVQLVESGGGLVQAGGSLRLSCAASGSIFKWYAMGWSRQAPGKERELVAAITNGGGSTYYADSVKGRFTISRDNAKNTVYLQMNSLKAEDTAVYYCAKDGHSYYPWVYDYWGQGTQVTVSS | low polyreactivity |
| QVQLVESGGGLVQAGGSLRLSCAASGSIFKWYAMGWYRQAPGKERELVAAITRGGSTNYADSVKGRFTISRDNAKNTVYLQMNSLKAEDTAVYYCNAVYTYRSGFGYWGQGTQVTVSS | low polyreactivity |
| QVQLVESGGGLVQAGGSLRLSCAASGSIFKWYTMGWYRQAPGKERELVAGISRGGSTYYADSVKGRFTISRDNAKNTVYLQMNSLKPEDTAVYYCAKASAIWRGDVKYYYWGQGTQVTVSS | high polyreactivity |
| QVQLVESGGGLVQAGGSLRLSCAASGSIFKYSAMAWYRPAPGKERELVATITSGGRTNYADSVKGRFTISRDNAKNTVYLQMNSLKPEDPAVYYCAAGSYYPYHSTTRWYVYWGQGTQVTVSS | high polyreactivity |
| QVQLVESGGGLVQAGGSLRLSCAASGSIFKYYAMGWYRQAPGKERELVAAISSTGGSTYYAHSLKGRFTISRDNANYTVYLQMNSLKTEDTAVYYCNTTYIWKNYDYWGQGTQVTVSS | high polyreactivity |
| QVQLVESGGGLVQAGGSLRLSCAASGSIFKYYAMGWYRQAPGKERELVAAITTTGGITYYADSVNGRFTISRDNAKNTDYLQMISLKPEDTAVYYCNAYYPIRSSPYGYYYCGQGTQVTVSS | high polyreactivity |
| QVQLVESGGGLVQAGGSLRLSCAASGSIFKYYTMGWYRPAPGKERELVAAITWRGGRTYYADSVKGRFTISRDNAKNTVYLQMNSLKPEDTAVYYCNTASWGFASYYYTYNYWGQGTQVTVSS | high polyreactivity |
| QVQLVESGGGLVQAGGSLRLSCAASGSIFLAYAMGWYRQAPGKEREFVAAISFSDGSTYYADSVKGRFTISRDNAKNTVYFQMNSLKPEDTAVYYCNKGASPDDYDYWGQGTQVTVSS | low polyreactivity |
| QVQLVESGGGLVQAGGSLRLSCAASGSIFLAYAMGWYRQAPGKERELVAAITSGGGRTYYADSVKGRFTISRDNAKNTVYLQMNSLKPEDTAVYYCAASYRAGQMWYDYWGQGTQVTVSS | high polyreactivity |
| QVQLVESGGGLVQAGGSLRLSCAASGSIFLENAMGWYRQAPGKERELVAAISRSGGSTYYADSVKGRFTISRDNAKNTVYLQMNSLKPEDTAVYYCNAYRDVYNYFFGAKYDYWGQGTQVTVSS | high polyreactivity |
| QVQLVESGGGLVQAGGSLRLSCAASGSIFLFNAMGWYRQAPGKERELVAAINRDDSTYYADSVKGRFTISRDNAKNTVYLLMISLKPEDTAVYYCAAPVLHAYYGYGYWGQGTQVTVSS | low polyreactivity |
| QVQLVESGGGLVQAGGSLRLSCAASGSIFLINAMGWYRQAPGKERELVAAISWSGGSTSYADSVKGRFTISRDNAKNTVYFQMNSLKPEDTAVFYCAAESISYRPGYDYWRQGTQVTVSS | low polyreactivity |
| QVQLVESGGGLVQAGGSLRLSCAASGSIFLIYAMGWYRQAPGKERELVAAITGGGTTNYADSVKGRFTISRDNAKNTVYLQMNSLKPEDTAVYYCNAVPRSWSPYRHWFDYWGQGTQVTVSS | low polyreactivity |
| QVQLVESGGGLVQAGGSLRLSCAASGSIFLKYAMGWYRQAPGKERELVAAISRGGDTNYADSVKGRFTISRDNAKNTVYLQMNSLKPEDTAVYYCAARPGLYFTRRGRYYWGQGTQVTVSS | high polyreactivity |
| QVQLVESGGGLVQAGGSLRLSCAASGSIFLKYTMGRYRQAPGKERELVAAITSGGTTNYADSVKGRFTISRDNAKNTVYLQMNSLKPEDTAVYYCARDSYQLGLIRDPLEYDYWGQGTQETVSS | low polyreactivity |
| QVQLVESGGGLVQAGGSLRLSCAASGSIFLQNAMGWYRQAPGKERELVAAITNGGSTNYADSVKGRFTISRDNAKNTVYLQMNSLKPEDSAVYYCAAYPLYTGSYDRGGYWGQGTQVTVSS | low polyreactivity |
| QVQLVESGGGLVQAGGSLRLSCAASGSIFLRYAMGWYRQAPGKERELVASITSGGSRYYADSVKGRFTISRDNAKNTVYFQMNSLKPEDTAVYYCNALPYRYRRYDYWGQGTQVTVSS | low polyreactivity |
| QVQLVESGGGLVQAGGSLRLSCAASGSIFLSNMGWYRQAPGKERELVAAISRNGGSTYYADSVKGRFTISRDNAKNTVYLQMNSLKPEDTAVYYCAVQRYWGQGTQVTVSS | high polyreactivity |
| QVQLVESGGGLVQAGGSLRLSCAASGSIFLSYDMGWYRQAPGNESELVAAITQSGGSTYYADSVKGRFTISRDNAKNTVYLQMNSLKPEDTAVYYCAADYGYFPQETYPTYGYYYWGQGTQVTVSS | low polyreactivity |

Reference: the nanobody polyreactivity screen of Harvey et al. (2022)
